Results: patent publication US9205132B2, “Method of lowering mortality” (CORTHERA, INC., priority 2008, dated 2015)
Marks after values point to notes of the source that are not given here.

Tested on: patients with acute heart failure (AHF)
Assay: Safety endpoints (adverse events, blood pressure, renal impairment, clinical laboratory), Pre-RELAX-AHF trial
Format: in vivo, human
Conditions: for change from baseline in mean hematocrit at 48 hours: described as transient decrease; for Total number of SAEs: to Day 30
Method: Study Procedures. The study was approved by the relevant ethics committees, institutional review hoards and regulatory authorities, and conducted under the International Conference on Harmonization Good Clinical Practice guidelines. All patients provided informed written consent prior to participation. […] The placebo used for the study was the same solution as the diluent used to prepare the 100 μg/kg/day dose. The randomization ratio was 3:2:2:2:2, respectively, Relaxin (Corthera, San Mateo, Calif.) was manufactured using recombinant techniques and was identical to the naturally-occurring peptide hormone. By protocol, the study drug infusion was to be terminated if the patient's SBP was reduced to <100 mmHg or by >40 mmHg compared to baseline in two successive measurements, 15 minutes apart. Investigators were not prohibited from utilizing any standard medication, thought necessary to treat patients enrolled in the study, including additional vasodilators, following a 4-hour washout period during which time IV vasodilators, IV pure inotropes and meals were withheld, hemodynamic, renal, and clinical responses to 48 hours of study drug infusion were assessed.
Study Endpoints. […] 4.) Length of initial hospital stay.

Substance: Relaxin
- SAE to Day 30: Cerebrovascular accident, n (%) (30 mcg/kg/d IV 48 h): 2 (4.8%) n (%)
- SAE to Day 30: Hypotension, n (%) (30 mcg/kg/d IV 48 h): 0 n (%)
- SAE to Day 30: Noncardiac chest pain, n (%) (30 mcg/kg/d IV 48 h): 0 n (%)
- SAE to Day 30: Pneumonia, n (%) (30 mcg/kg/d IV 48 h): 3 (7.1%) n (%)
- SAE to Day 30: Renal failure, n (%) (30 mcg/kg/d IV 48 h): 1 (2.4%) n (%)
- SAE to Day 30: Urinary retention, n (%) (30 mcg/kg/d IV 48 h): 0 n (%)
- SAE to Day 30: Urinary tract infection, n (%) (30 mcg/kg/d IV 48 h): 1 (2.4%) n (%)
- SAE to Day 30: Ventricular fibrillation, n (%) (30 mcg/kg/d IV 48 h): 0 n (%)
- mean change in creatinine from baseline at Day 14 (30 mcg/kg/d IV 48 h): 0.13 ± 0.49 mg/dL
- mean decrease in SBP compared to placebo during infusion (30 mcg/kg/d IV 48 h): 3-4 mmHg
- patients requiring treatment of blood pressure reduction (30 mcg/kg/d IV 48 h): None of the patients
- proportion of patients at Day 14 with an increase in creatinine of 0.3 mg/dL or more (30 mcg/kg/d IV 48 h): 26.3%
- change from baseline in mean hematocrit at 48 hours (30 mcg/kg/d IV 48 h): 1.45%
- Patients with any AE from Day 15 to Day 30, n (%) (100 mcg/kg/d IV 48 h): 2 (5.3%) n (%)
- Patients with any SAEs to Day 30, n (%) (100 mcg/kg/d IV 48 h): 3 (7.9%) n (%)
- Patients with any adverse events to Day 30, n (%) (100 mcg/kg/d IV 48 h): 24 (63.2%) n (%)
- Protocol-specified study drug discontinuation due to blood pressure reduction (100 mcg/kg/d IV 48 h): 7.9%
- Renal impairment: Patients with ≧0.3 mg/dL increase in creatinine at Day 5 (100 mcg/kg/d IV 48 h): 9 (26.5%) n (%)
- Renal impairment: Patients with ≧0.3 mg/dL increase in creatinine at Day 5 and Day 14 (100 mcg/kg/d IV 48 h): 4 (10.8%) n (%)
- Renal impairment: Patients with ≧25% increase in creatinine at Day 5 (100 mcg/kg/d IV 48 h): 11 (29.7%) * n (%)
- SAE to Day 30: Acute respiratory failure, n (%) (100 mcg/kg/d IV 48 h): 1 (2.6%) n (%)
- SAE to Day 30: Bronchitis, n (%) (100 mcg/kg/d IV 48 h): 0 n (%)
- SAE to Day 30: Cardiac failure, n (%) (100 mcg/kg/d IV 48 h): 0 n (%)
- SAE to Day 30: Cerebrovascular accident, n (%) (100 mcg/kg/d IV 48 h): 0 n (%)
- SAE to Day 30: Hypotension, n (%) (100 mcg/kg/d IV 48 h): 0 n (%)
- SAE to Day 30: Noncardiac chest pain, n (%) (100 mcg/kg/d IV 48 h): 0 n (%)
- SAE to Day 30: Pneumonia, n (%) (100 mcg/kg/d IV 48 h): 0 n (%)
- SAE to Day 30: Renal failure, n (%) (100 mcg/kg/d IV 48 h): 0 n (%)
- SAE to Day 30: Urinary retention, n (%) (100 mcg/kg/d IV 48 h): 2 (5.3%) n (%)
- SAE to Day 30: Urinary tract infection, n (%) (100 mcg/kg/d IV 48 h): 0 n (%)
- SAE to Day 30: Ventricular fibrillation, n (%) (100 mcg/kg/d IV 48 h): 0 n (%)
- mean change in creatinine from baseline at Day 14 (100 mcg/kg/d IV 48 h): 0.08 ± 0.39 mg/dL
- mean decrease in SBP compared to placebo during infusion (100 mcg/kg/d IV 48 h): 3-4 mmHg
- proportion of patients at Day 14 with an increase in creatinine of 0.3 mg/dL or more (100 mcg/kg/d IV 48 h): 24.2%
- change from baseline in mean hematocrit at 48 hours (100 mcg/kg/d IV 48 h): 0.25%
- Patients with any AE from Day 15 to Day 30, n (%) (250 mcg/kg/d IV 48 h): 3 (6.1%) n (%)
- Patients with any SAEs to Day 30, n (%) (250 mcg/kg/d IV 48 h): 8 (16.3%) n (%)
- Patients with any adverse events to Day 30, n (%) (250 mcg/kg/d IV 48 h): 25 (51.0%) n (%)
- Protocol-specified study drug discontinuation due to blood pressure reduction (250 mcg/kg/d IV 48 h): 16.3%
- Renal impairment: Patients with ≧0.3 mg/dL increase in creatinine at Day 5 (250 mcg/kg/d IV 48 h): 10 (22.7%) n (%)
- Renal impairment: Patients with ≧0.3 mg/dL increase in creatinine at Day 5 and Day 14 (250 mcg/kg/d IV 48 h): 7 (15.2%) + n (%)
- Renal impairment: Patients with ≧25% increase in creatinine at Day 5 (250 mcg/kg/d IV 48 h): 12 (25.5%) n (%)
- SAE to Day 30: Acute respiratory failure, n (%) (250 mcg/kg/d IV 48 h): 0 n (%)
- SAE to Day 30: Bronchitis, n (%) (250 mcg/kg/d IV 48 h): 1 (2.0%) n (%)
- SAE to Day 30: Cardiac failure, n (%) (250 mcg/kg/d IV 48 h): 2 (6.1%) n (%)
- SAE to Day 30: Cerebrovascular accident, n (%) (250 mcg/kg/d IV 48 h): 0 n (%)
- SAE to Day 30: Hypotension, n (%) (250 mcg/kg/d IV 48 h): 2 (4.1%) n (%)
- SAE to Day 30: Noncardiac chest pain, n (%) (250 mcg/kg/d IV 48 h): 1 (2.0%) n (%)
- SAE to Day 30: Pneumonia, n (%) (250 mcg/kg/d IV 48 h): 0 n (%)
- SAE to Day 30: Renal failure, n (%) (250 mcg/kg/d IV 48 h): 0 n (%)
- SAE to Day 30: Urinary retention, n (%) (250 mcg/kg/d IV 48 h): 0 n (%)
- SAE to Day 30: Urinary tract infection, n (%) (250 mcg/kg/d IV 48 h): 1 (2.0%) n (%)
- SAE to Day 30: Ventricular fibrillation, n (%) (250 mcg/kg/d IV 48 h): 0 n (%)
- mean change in creatinine from baseline at Day 14 (250 mcg/kg/d IV 48 h): 0.10 ± 0.39 mg/dL
- proportion of patients at Day 14 with an increase in creatinine of 0.3 mg/dL or more (250 mcg/kg/d IV 48 h): 37.2%
- change from baseline in mean hematocrit at 48 hours (250 mcg/kg/d IV 48 h): 0.64%
- renal toxicity (AHF and/or acute vascular failure patients): low to no renal toxicity
- safety and tolerability (AHF patients, all doses): no safety or tolerability issues
- hypotension in patients with baseline SBP below the median (FIGS. 22A and 22B): does not cause deleterious hypotension
- trough SBP (all cases with blood pressure reduction): ≥ 80 mmHg
- mean change in pulse from baseline through day 14 (all relaxin groups vs placebo, FIG. 20): not chronotropic
- average decrease in systolic blood pressure over all time points during infusion vs placebo (all relaxin groups, FIG. 21): did not differ
- patients who received intravenous fluids for hypotension (four relaxin-treated groups together (5 patients)): 3.0%
- patients with SBP reductions in whom SBP stabilized or rose with no therapy after discontinuation of study drug (relaxin-treated patients, all doses): 18 of 23
- Total number of SAEs (10 mcg/kg/d IV 48 h): 8
- Total number of SAEs (30 mcg/kg/d IV 48 h): 12
- Total number of SAEs (100 mcg/kg/d IV 48 h): 3
- Total number of SAEs (250 mcg/kg/d IV 48 h): 11
